Assay: soluble on expression in E. coli; label from the status in PepcDB or PDB records

Which “soluble on expression in E. coli” value does the source give for “MGHHHHHHSHMVNKNAGETLLQRAARLGYEEVVLYCLENKICDVNHRDNAGYCALHEACARGWLNIVRHLLEYGADVNCSAQDGTRPLHDAVENDHLEIVRLLLSYGADPTLATYSGRTIMKMTHSELMEKFLTDYLN” here?
Its value is “not soluble”.

For “MGHHHHHHSHMVTASRYYPQLMSLVGNVLRFLPAFVRMKQLISEHYVGAVMICDARIYSGSLLSPSYGWICDELMGGGGLHTMGTYIVDLLTHLTGRRAEKVHGLLKTFVRQNAAIRGIRHVTSDDFCFFQMLMGGGVCSTVTLNFNMPGAFVHEVMVVGSAGRLVARGADLYGQKNSATQEELLLRDSLAVGAGLPEQGPQDVPLLYLKGMVYMVQALRQSFQGQGDRRTWDRTPVSMAASFEDGLYMQSVVDAIKRSSRSGEWEAVEVLTEEPDTNQNLCEALQRNNL”, which “soluble on expression in E. coli” value is on record?
The value was “not soluble”.

With “MGHHHHHHSHNCHWTYLKQNRKMAANSSGQGFQNKNRVAILAELDKEKRKLLMQNQSSTNHPGARY” as the sequence, how does the “soluble on expression in E. coli” value read?
The value was “not soluble”.

Which “soluble on expression in E. coli” value does the source give for “MGHHHHHHSHPKGVLPSHYYESFLEKKGPCDRDYKKFWAGLQGLTIYFYNSNRDFQHVEKLNLGAFEKLTDEIPWGSSRDPGTHFSLILRNQEIKFKVETLECREMWKGFILTVVELRVPTDLTLLPGHLYMMSEVLAK” here?
Its value is “not soluble”.

With “MGHHHHHHSHQQENGSMFSLITWNIDGLDLNNLSERARGVCSYLALYSPDVIFLQEVIPPYYSYLKKRSSNYEIITGHEEGYFTAIMLKKSRVKLKSQEIIPFPSTKMMRNLLCVHVNVSGNELCLMTSHLESTRGHAAERMNQLKMVLKKMQEAPESATVIFAGDTNLRDREVTRCGGLPNNIVDVWEFLGKPKHCQYTWDTQMNSNLGITAACKLRFDRIFFRAAAEEGHIIPRSLDLLGLEKLDCGRFPSDHWGLLCNLDIIL” as the sequence, how does the “soluble on expression in E. coli” value read?
Its value is “not soluble”.

Which “soluble on expression in E. coli” value does the source give for “MGHHHHHHSHVTNLNLATGIINRSSASAPPTLRPIISPSGPTWSTQSDPQAPENHSSSPGSSFI” here?
The value was “not soluble”.

For “MGHHHHHHSHYGSLNPKAITISQYGEPFVVGTSRVVEIIRKLRERFGEVRIDIQTNGTLLEPEILGSEADIVMISLDAGSRESYAEITGKDFFERVVKNIEKMSEHTYTVVRTVFMPGINDEELERIAEIASQADELFLQPLSIYRENTELLKRLDVERAESLGDYLQTAYRLSEIASVRIPGCLLLNMRWFLREFEIGEL”, which “soluble on expression in E. coli” value is on record?
The value was “not soluble”.

Which “soluble on expression in E. coli” value does the source give for “MGHHHHHHSHYHVYWLEMVLFYRAHFGTDETILDGKEYDIYVSYARNAEEEEFVLLTLRGVLENEFGYKLCIFDRDSLPGGIVTDETLSFIQKSRRLLVVLSPNYVLQGTQALLELKAGLENMASRGNINVILVQYKAVKETKVKELKRAKTVLTVIKWKGEKSKYPQGRFWKQLQVAMPVKKSPRRSSS” here?
The value was “soluble”.

For “MGHKLAFNFNLEINGSDTHSTVDVYLDDSQIITFDGKDIRPTIPFMIGDEIFLPFYKNVFSEFFSLFRRVPTSTPYEDLTYFYECDYTDNKSTFDQFYLYNGEEYTVKTQEATNKNMWLTTSEFRLKKWFDGEDCIMHLRSLVRKMEDSKRNTG”, which “soluble on expression in E. coli” value is on record?
Its value is “not soluble”.

With “MGHPPLLPLLLLLHTCVPASWGLRCMQCKTNGDCRVEECALGQDLCRTTIVRLWEEGEELELVEKSCTHSEKTNRTLSYRTGLKITSLTEVVCGLDLCNQGNSGRAVTYSRSRYLECISCGSSDMSCERGRHQSLQCRSPEEQCLDVVTHWIQEGEEGRPKDDRHLRGCGYLPGCPGSNGFHNNDTFHFLKCCNTTKCNEGPILELENLPQNGRQCYSCKGNSTHGCSSEETFLIDCRGPMNQCLVATGTHEPKNQSYMVRGCATASMCQHAHLGDAFSMNHIDVSCCTKSGCNHPDLDVQYRSGAAPQPGPAHLSLTITLLMTARLWGGTLLWT” as the sequence, how does the “soluble on expression in E. coli” value read?
The value was “not soluble”.

For “MGIKHLNLTVADVVAAREFLEKYFGLTCSGTRGNAFAVMRDNDGFILTLMKGKEVQYPKTFHVGFPQESEEQVDKINQRLKEDGFLVEPPKHAHAYTFYVEAPGGFTIEVMC”, which “soluble on expression in E. coli” value is on record?
The value was “soluble”.

Which “soluble on expression in E. coli” value does the source give for “MGILDHPSSSSGIQSGGGTFGIDWAKWFPPVTSRSFLSHYLPASGALSHTLYTVHLFSPNIISSLFPTGDLAVSNTILFNANVGLGFYVYFRRHLHRVNPWERVEFSVLSSTLFNFGSLLAAVLIKALIPAKSPTWLKSLTATVLSGYLLSRAAKYMGILDHRSSRGSVSPARSVLSRRQTASRSSHAAEVTPPPASYAPETPRSVASTSYYSPSELHLDTTSSVQLETPPQSHESGSFMPMTPSATEHSSSEFGQDLEDAGDRHENYRYLHSYALNNLNHSRPKKETILRRTTMNQKNQLATPQKQLRRSSETMAPMCFVTPEPSWKELDVGVYTPPPSRMDFTPQASKKLTKSSKSVKIIQKKSRRIPNEKDDFDRFLDAVQWHAPLILVPVAFGCWITGSVPILSPTLRFIFA” here?
The value was “not soluble”.

Which “soluble on expression in E. coli” value does the source give for “MGILETLVLKEKINGTEKAVIFRELIKKEMELLNDYCAKNHLFPKDYRIEFCHLHNIKKVNIARLLTILKYYDPRFIEILMSTDPKVRTFIQYFMEFLEKHPYFEDVLEPQNLFGNWDYIRYKLKILFPQLTFEEIDRFKFKRKEFINYVKEKLGEPEELIEDKLNLATWYESVPYLELESEMTPGVHPDPVMTPEEWSFIKRHIKGRKNIIIRDPDTGKEKLVYVEVDIPDEELDKYYKNREGLKKLLMERYNIDESGAEQILRKAGWEATGWHIVPPVHTDVEVVYPEEEKKEEKKVEVKREPFDIMELAKHIRYLGGRELEMLNYYELVHDKVPEIHEKLHMFMRTKRRLLGKLFGIYYTVDPVMAEAILINDPENIELLKSLTISTGLRDKKFSIYDSSKVWNEIKRRVRFIFPEVSEEEIEKFKGKRSEFVTYLAQKLGKPEEYIDERLERAGWLRSEEIPAFIRHVGP” here?
The value was “not soluble”.

For “MGIMADRLASMVVKATSPDGQIEGELRDRDAVSVAFRGDTYRHYTEYSLGTQLSRLALRMWTGYQRGYDEAVAEATGRPVSRSQETWDANRRRFRQEQAATTVTGMSTDGWIYIQNTGMTSWHVVIRQGTLSKLDEDQFVAELMDAYNTMITEYRFATADLRAKHYGVSFQPRNPPVKELRA”, which “soluble on expression in E. coli” value is on record?
The value was “not soluble”.

For “MGIYEAIQATIKEAMKARDERTLAFARVVKAELDRKGDGKPLPDEEAVKVLKALKEIALEQGNAFEAEFLDRFLPKEMSEEELEAWIREHVDLSQFKNPLAAIGVVTKALGPKAPGEKVRKVIERLTR”, which “soluble on expression in E. coli” value is on record?
The value was “soluble”.

With “MGKEYPYGLLRCFVRRIGKPTDSPRMTSAPTSNQSNPAWSRDELVLALNLYLLHRNGLPGVNHPDVLALSQALNLIGNATGVSKNQSFRNANGVCMKLNNFRRWDPSYTNNGRTGLAKGNKDEQLVWLEFANDPERLAEVVAAINANVQMIPASPIDLSAADDPGFFEAEEGKVLTRVHRVRERDKKIVKRKKEEALTQHGALQCEACGFNFSQTYGADVEGVIDVHHTKPLHTLQPGDKTKLADLALLCANCHRVLHSQRKWLSVAEVKERYQANLKQIQMLEHHHHHH” as the sequence, how does the “soluble on expression in E. coli” value read?
Its value is “soluble”.

For “MGKFLVQFWGVRGLIPTPSSNTSRYGGNTACVEMQVAGKRLIFDGGTGLRILGKAWQHLQQPLEAHLFFTNSQSNRIQGFPFFAPAFIAGNCFHIYGGAASNGASIKQCLCDQMLQPHFPYPLQVMQSELQFYPLTPDSEVKLDDVTIRTALINQTQRSIGYRVTWQEYSVAYVTDLNMSAEQGEREQVLQIIQDVDLLIANATYTPPTSHDHESVDLLWQAAVEMAQKAGVRKLIISHHHPDDHDDFLDQVEKEVQSTFSDALLACEGLALPVFLEHHHHHH”, which “soluble on expression in E. coli” value is on record?
The value was “not soluble”.

Which “soluble on expression in E. coli” value does the source give for “MGKPTGFLEYTREIPQELSPGDRLRNWDEFHVTMPDKQVETQGARCMDCGTPFCHTGSLISGMASGCPINNLIPEFNDLVYRGLWREALDRLHKTNNFPEFTGRVCPAPCEGSCVLGINNPPVTIKNIEYSIIEKGWQEGWVTPEPPAKRTGKKVAVVGSGPAGLAAAAQLNKAGHWVTVYEREDRPGGLLMYGIPNMKLDKEEVVLRRLNVLEAEGVTFVCNTEIGKDLPPETLLKDYDAVVLCTGATKPRDLAIAGRELEGIHFAMEFLTANTKAILDKTPGPNFISAKDKDVVIIGGGDTGTDCVGTSLRHGCRSLVQLEIMPKPPEERAANNPWPEWPKVYKMDYGQEEAAAVYGHDPRSYLTTATKIEGDDQGRVKAVHTVDVRWEKDGQGRFIPQQVAGTEQVRPAQLVLLAMGFVGPESQLLDAMKLDKDARGNIKAEYGQYETSIPGVFAAGDCRRGQSLVVWAFNEGRGAAKACDLYLMGETDLPLEHHHHHH” here?
Its value is “not soluble”.

Which “soluble on expression in E. coli” value does the source give for “MGKTYNVTRIIKLEVRDRIIPPTMKLPEGVVTSIGSNLTITCRVSLRLPTTDADVFWISNGMYYEEEDEDGDGRISVANKIYMTDKRRVITSWLNINPVKEEDATTFTCMAFTIPSISKTVTVSIT” here?
Its value is “not soluble”.

Which “soluble on expression in E. coli” value does the source give for “MGLCISKHSGSSYSYSDRDHWEVPVNPSNVRAVSSHQTASASDRASDKVDERPATFSHFQLARCGEDYTLSMVSLAAYQAERRHRGNLIKDRSQSALPWVQVYHSETGLNYSFQIDRTTTVKVAGFNYNVPNDGKTRHLYSAGTSQVNMPVIADNMSACIAVACAAENVDAGTG” here?
The value was “not soluble”.

With “MGLELPLILGTSSVFRREQMERLGIAFQAASPDFDETPMLGESAPQTALRLAEGKARSLTGRFPEALIVGADQVAWCDGRQWGKPMNLANAQKMLMHLSGREIEFYSAIVLLNTVTGRMRRHIDKTVVVMRQLDELHILRYLEREPDAVYCSCALKSEDLGALLIERIESTDPNALIGLPVFRLVDFLKNEGVEVL” as the sequence, how does the “soluble on expression in E. coli” value read?
The value was “not soluble”.

Which “soluble on expression in E. coli” value does the source give for “MGLFDRLKRVVGANVNDLINKAEDPEKMLEQAILEMQEDLVQLRQGVAQAIAAQKRTEKQYNDAQNEINKWDRNARLALQKGDENLARQALERKKSFTDTSTSLKTSLDQQTIQVDTLKKNLIQLESKISEAKTKKEMLKARITAAKAQEQLGSMVVSMNSSSAMAAFERMEEKVLMQEARAQSTAELVGADLETQFAQLESGSDVDDELAALKASMLPPAPAPQGQLPPSQATTAKPTEPIDSDLEALKRQLDQM” here?
Its value is “not soluble”.

Which “soluble on expression in E. coli” value does the source give for “MGLSTSNKPLSERIEESKKDVFMQKAVAKAQDAQWEKREGAREALGNWPQWRELGEQIRQHTIQYLPDYLEEFSDNVAKRGGKVFFAQTAEEANEYVKQVVLEKKAKKIVKSKSMVTTEVDIDPMLLGLDDVSVMETDLAEFILQMDDWDEPSHIVFPSIHKNREQIRQVFAKKLGYQGDNDPVNLARCAREVMRKFFLEAEIGITGCNFAIADSGLINLNTNEGNADLTISIPKTQIVLMGMERIVPTMREAEVLDNLLARSAVGQNLTTYVTFAGQKNADESDGPEEFHVVILDNGRSKALGTAFQPVLQCIRCGSCLNVCPVYRHIGGHGYGSIYPGPIGAVLSPILGGYKQFGELPYASSLCGACTETCPVKIPLHELLIEHRKVMTDDLKMKHGFEDFQMRMVGKATGSPAMFKAAMKVDHAAAGILSKQKDITVENMYNHGGYLDKGPGLVKGWTDVRDLPRPPKSSENFRSWFKKHQEGEKND” here?
The value was “not soluble”.

Which “soluble on expression in E. coli” value does the source give for “MGLTFENNTIENFDVQATFGMMNFLEVVAINERDGENNVTEEVREQRVTVYSSKLNDQVEIVIDPDYDVSGINYDDEIELTGNVTARGWLYTFKGYNDNVQTEQAFKVRAAGIKKVGAVKQTQAPQPKEKQENKQ” here?
Its value is “not soluble”.

Which “soluble on expression in E. coli” value does the source give for “MGMAAESQFHVLAVDDSLFDRKLIERLLQKSSCQVTTVDSGSKALEFLGLRQSTDSNDPNAFSKAPVNHQVVEVNLIITDYCMPGMTGYDLLKKVKESSAFRDIPVVIMSSENVPARISRCLEEGAEEFFLKPVRLADLNKLKPHMMKTKLKNQKLEEIETTSKVENGVPTAVADPEIKDSTNIEIEILPLQQDLLLVQQEEQTLSINNKRKSVEEGISTDRARPRFDGIATAV” here?
The value was “not soluble”.
